Here are results for 9 molecules from publication PMC6312923 (Life Science Alliance, 2018).

Where no end group is shown, it is not given here. TAMRA = carboxytetramethylrhodamine

One data set concerns free PCNA. Description: Binding of free PCNA to Cdt1 or CRL4^Cdt2 on anti-FLAG beads. Also on record: species or system human. To be noted: 2 h at 4°C, Western blotting, three independent experiments. The source says:
FLAG-tagged Cdt1 (Cdt1-3FLAG) and CRL4^Cdt2 (Cdt2-3FLAG) were expressed in insect cells and purified on anti-FLAG resin (Fig 5A).
(A western blot detects proteins with antibodies after separation by electrophoresis.)

Data set [1] concerns CRL4Cdt2 (WT): Cdt2-3FLAG with Cul4A, DDB1, Rbx1;PCNA (Homo sapiens;Homo sapiens). Description: pull-down (DNA beads, Western blot). The following applies: PCNA preloaded by RFC with ATP; no Cdt1; 408 fmol Cdt2 on […] fmol PCNA trimer; biotin-dT in the second strand; single nick by Nb.BbvCI; HBS: 10 mM Hepes pH 7.4, 0.15 M NaCl, 10 mM MgCl2, 0.2 mM EDTA, 0.05% Tween 20; loading with 2 mM ATP, 37 C 1 h; Cdt1/CRL4Cdt2 binding 4 C 1 h.

Data set [2] deals with Cdt1-3FLAG;PCNA (Homo sapiens;Homo sapiens). Nature of the data set: pull-down (DNA beads, Western blot). To be noted: PCNA preloaded by RFC with ATP; 301 fmol Cdt1 on […] fmol PCNA trimer; biotin-dT in the second strand; single nick by Nb.BbvCI; HBS: 10 mM Hepes pH 7.4, 0.15 M NaCl, 10 mM MgCl2, 0.2 mM EDTA, 0.05% Tween 20; loading with 2 mM ATP, 37 C 1 h; Cdt1/CRL4Cdt2 binding 4 C 1 h.

Data set [3] has as its system MCF7 cells, DNA-damage (CPD) sites. Nature of the data set: Recruitment of GFP-Cdt2 constructs to DNA-damage sites in MCF7 cells. Format: cell-based, human. The following applies: MCF7, UV-C 50 J/m^2, GFP fusions; two independent experiments. The source says: Figure 2. The C-terminus of Cdt2 mediates Cdt2 recruitment to sites of damage. (A) A schematic drawing of the domain structure of Cdt2 and constructs used. (B) The C-terminal, but not the N-terminal, part of Cdt2 mediates recruitment to DNA damage sites. MCF7 cells transfected with the indicated plasmids were locally UV-C irradiated (50 J/m^2 through 5 μm pore diameter micropore filters), and recruitment of each Cdt2 construct to sites of damage was examined by staining with α-CPD antibody and GFP signal.
For Western blotting, whole-cell lysates were prepared by lysing cell pellets directly in SDS–PAGE buffer. For immunofluorescence, U2OS or HEK293 cells were fixed in 4% paraformaldehyde (PFA; WAKO) for 10 min, permeabilized in 0.25% (vol/vol) Triton X-100 in PBS, and stained with the indicated antibodies as described previously. […] For cyclobutane pyrimidine dimer (CPDs) staining, MCF7 and HeLa cells were fixed in 4% PFA for 10 min, permeabilized in 0.3% Triton X-100 in PBS, and then incubated in 0.5 N NaOH for 5 min for DNA denaturation before immunofluorescence. Alexa488-conjugated anti-mouse and […] anti-rabbit antibodies were used as secondary antibodies with Hoechst 33258 to visualize DNA. […] Protein levels were analysed by ImageJ software.
We used a method to induce DNA photoproducts within localized areas of the cell nucleus as described in Ishii et al (2010). To perform micropore UV irradiation, cells were cultured on cover slips, washed twice with PBS, and subsequently covered with an isopore polycarbonate membrane filter (Millipore) with a pore size of either 3 or 5 μm in diameter, and irradiated. UV irradiation was achieved using a UV lamp (SUV-16, As One, Japan) with a dose rate of 0.4 J/m^2·s, which was monitored with a UV radiometer (UVX Radiometer, UVP) at 254 nm, or with a UV box equipped with a UV-C lamp monitored with a VLX-3W radiometer (Vilber Lourmat) at 254 nm (CX-254 sensor). The filter was removed and cells were either fixed or cultured for the indicated time before fixation, and processed for immunofluorescence. […]

Another data set concerns DDB1, Cul4A. Description: Co-immunoprecipitation of DDB1 / Cul4A with FLAG-tagged Cdt2 constructs. The format is cell-based, human. To be noted: anti-FLAG IP, cross-linked cells. The source says:
(§1) Before cell lysate preparation, cells were cross-linked.
(§2) Figure 3. […] HEK293 cells were transfected with plasmids expressing the indicated Cdt2 fused to a C-terminal FLAG tag, cross-linked, and precipitated with anti-FLAG antibodies (arrows). […] The bands in the blank lanes for Cul4A blotting correspond to the cross-reacting bands to pre-stained marker. […] HEK293 cells were transfected with the indicated plasmids and treated as in A. * indicates nonspecific bands derived from IgGs. (C) A schematic drawing of the Cdt2 domain structure highlighting the C-terminal PIP box and a sequence alignment of PIP boxes in various organisms. The alanine-changed PIP box mutant of Cdt2 was shown (PIP-3A) together with Cdt1 PIP box. (D) HEK293 cells were transfected with Cdt2^WT or PIP box mutant (Cdt2^PIP-3A) C-terminally fused to a FLAG tag, treated as in B, and Cdt2 was precipitated with anti-FLAG resin.
(§3) Control or Cdt2-FLAG expressing 293 cells that were UV irradiated (50 J/m^2), or not UV irradiated, or in the middle S phase (5 h after release from aphidicolon arrest) were fixed with 0.02% formaldehyde for 10 min, lysed using 0.1% Triton X-100-containing modified cytoskeleton (mCSK) buffer (10 mM Pipes, pH 7.9, 100 mM NaCl, 300 mM sucrose, 0.1% [vol/vol] Triton X-100, 1 mM phenylmethylsulfonyl fluoride, 10 mM β-glycerophosphate, 1 mMNa3VO4, 10 mM NaF), and then sonicated. After centrifugation (120,000g, Beckman Type 45Ti rotor, for 20 min at 4°C), the supernatants were mixed with anti-FLAG antibody-conjugated magnetic beads (M8823; Sigma-Aldrich) for 1 h at 4°C to obtain immunoprecipitates. The precipitate was washed with ice-cold 0.1% Triton X-100 containing mCSK buffer and subsequently suspended in SDS sample buffer.

The subject of another data set is PCNA. Description: Co-immunoprecipitation of PCNA with FLAG-tagged Cdt2 constructs. Format: cell-based, human. The following applies: cross-linked cells, 3FLAG fusions, no UV.
From the text: as §1, §2, §3

For data set [4], the target named is T1, full-length human PCNA (recombinant, for peptide binding and crystallography) (human, UniProt P12004 1-261).
T1 construct: PCNA, human, full length; also called recombinant PCNA; source: E. coli Bl21 (DE3), purified as described (Hibbert & Sixma, 2012)
Nature of the data set: fluorescence polarisation; 1 nM labelled peptide mixed with PCNA at 0 to 2 μM; 10 mM Hepes pH 7.5, 125 mM NaCl, 0.5 mM TCEP; non-binding 96-well plates; triplicates. The following applies: both partners purified.

T1 sequence (P12004 whole entry): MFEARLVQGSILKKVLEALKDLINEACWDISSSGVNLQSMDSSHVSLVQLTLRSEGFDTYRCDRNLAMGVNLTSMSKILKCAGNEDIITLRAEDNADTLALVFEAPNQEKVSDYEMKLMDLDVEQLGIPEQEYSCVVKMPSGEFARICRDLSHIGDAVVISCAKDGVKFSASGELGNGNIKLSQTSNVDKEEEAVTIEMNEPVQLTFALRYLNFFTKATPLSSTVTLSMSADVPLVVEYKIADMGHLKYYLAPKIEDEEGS

On to “CRL4^Cdt2: E3 ligase complex of Cdt2-3FLAG, DDB1, HA-Cul4, His-myc-Rbx1, purified from insect cells”, for which, in the data set with free PCNA, the “binding of free PCNA to protein beads” value is reported as “much less”. As for “ncDNA beads (singly nicked circular pBluescript II KS(-))”, the binding signal (Cdt2 per PCNA trimer) in data set [1] came to 2.57. In data set [2], this molecule showed a binding signal (Cdt1 per PCNA trimer) of 2.04.

B1: Cdt2^1–417: Cdt2 N-terminal WD40 domain construct (protein)
chain: MLFNSVLRQPQLGVLRNGWSSQYPLQSLLTGYQCSGNDEHTSYGETGVPVPPFGCTFSSAPNMEHVLAVANEEGFVRLYNTESQSFRKKCFKEWMAHWNAVFDLAWVPGELKLVTAAGDQTAKFWDVKAGELIGTCKGHQCSLKSVAFSKFEKAVFCTGGRDGNIMVWDTRCNKKDGFYRQVNQISGAHNTSDKQTPSKPKKKQNSKGLAPSVDFQQSVTVVLFQDENTLVSAGAVDGIIKVWDLRKNYTAYRQEPIASKSFLYPGSSTRKLGYSSLILDSTGSTLFANCTDDNIYMFNMTGLKTSPVAIFNGHQNSTFYVKSSLSPDDQFLVSGSSDEAAYIWKVSTPWQPPTVLLGHSQEVTSVCWCPSDFTKIATCSDDNTLKIWRLNRGLEEKPGGDKLSTVGWASQKKKESR
modifications: left off: HA, N-terminal, state not stated | 3FLAG, C-terminal, kept
notes: Cdt2 N-terminal WD40 domain construct
As to B1, in data set [3], the “recruitment to DNA-damage sites” value was “no evidence for recruitment”. In addition, in the data set on DDB1, Cul4A, the “binding to DDB1 (and Cul4A)” value is “still able to bind DDB1”. The “interaction with PCNA (anti-FLAG IP)” value in the data set with PCNA is listed as “lost most of its affinity for PCNA”.

B2: Cdt2^PIP-TAMRA (704–717) (peptide)
peptide: {TAMRA}-SSMRKICTYFHRKS
notes: human Cdt2 PIP box, residues 704-717; also called Cdt2 PIP box peptide; source: synthetic peptide (in-house Fmoc synthesis)
For B2, in data set [4], the equilibrium dissociation constant (Kd) came to 57 ± 3 nM.

B3: Cdt1^PIP-TAMRA (1–14) (peptide)
peptide: MEQRRVTDFFARRR
modifications: also: TAMRA label, position not given here
notes: Cdt1 N-terminal PIP box peptide, residues 1-14; also called Cdt1 PIP box peptide; source: synthetic peptide (in-house Fmoc synthesis)
As for B3, in data set [4], the Kd worked out at 7200 ± 200 nM.

On to RRQTSMTDFYHSKR (p21 PIP box peptide) [p21 PIP box peptide], for which the dissociation constant Kd in data set [4] was determined as 36 ± 2 nM.

B4: Cdt2^600–730: C-terminal 130 amino acids of Cdt2 (protein)
chain: KDSLGPTKSSKIEGAGTSISEPPSPISPYASESCGTLPLPLRPCGEGSEMVGKENSSPENKNWLLAMAAKRKAENPSPRSPSSQTPNSRRQSGKKLPSPVTITPSSMRKICTYFHRKSQEDFCGPEHSTEL
modifications: left off: 3FLAG, N-terminal, kept | 3NLS, N-terminal, state not stated | myc, N-terminal, state not stated
notes: C-terminal 130 amino acids of Cdt2
For B4, the “interaction with PCNA (anti-FLAG IP)” value with PCNA is reported as “sufficient to mediate the interaction with PCNA”.

B5: Cdt2^390–730: C-terminal Cdt2 construct (protein)
chain: LNRGLEEKPGGDKLSTVGWASQKKKESRPGLVTVTSSQSTPAKAPRAKCNPSNSSPSSAACAPSCAGDLPLPSNTPTFSIKTSPAKARSPINRRGSVSSVSPKPPSSFKMSIRNWVTRTPSSSPPITPPASETKIMSPRKALIPVSQKSSQAEACSESRNRVKRRLDSSCLESVKQKCVKSCNCVTELDGQVENLHLDLCCLAGNQEDLSKDSLGPTKSSKIEGAGTSISEPPSPISPYASESCGTLPLPLRPCGEGSEMVGKENSSPENKNWLLAMAAKRKAENPSPRSPSSQTPNSRRQSGKKLPSPVTITPSSMRKICTYFHRKSQEDFCGPEHSTEL
modifications: left off: 3FLAG, N-terminal, kept | 3NLS, N-terminal, state not stated | myc, N-terminal, state not stated
notes: C-terminal Cdt2 construct
In the case of B5, the “recruitment to DNA-damage sites” value in data set [3] was “efficiently recruited to DNA-damage sites”. Moreover, in the data set with DDB1, Cul4A, the “binding to DDB1 (and Cul4A)” value was “lost its ability to bind DDB1”. In addition, the “interaction with PCNA (anti-FLAG IP)” value in the data set on PCNA is recorded as “still binds to PCNA”.

B6: Cdt2^1–700: Cdt2 with the C-terminal 30 amino acids deleted (protein)
chain: MLFNSVLRQPQLGVLRNGWSSQYPLQSLLTGYQCSGNDEHTSYGETGVPVPPFGCTFSSAPNMEHVLAVANEEGFVRLYNTESQSFRKKCFKEWMAHWNAVFDLAWVPGELKLVTAAGDQTAKFWDVKAGELIGTCKGHQCSLKSVAFSKFEKAVFCTGGRDGNIMVWDTRCNKKDGFYRQVNQISGAHNTSDKQTPSKPKKKQNSKGLAPSVDFQQSVTVVLFQDENTLVSAGAVDGIIKVWDLRKNYTAYRQEPIASKSFLYPGSSTRKLGYSSLILDSTGSTLFANCTDDNIYMFNMTGLKTSPVAIFNGHQNSTFYVKSSLSPDDQFLVSGSSDEAAYIWKVSTPWQPPTVLLGHSQEVTSVCWCPSDFTKIATCSDDNTLKIWRLNRGLEEKPGGDKLSTVGWASQKKKESRPGLVTVTSSQSTPAKAPRAKCNPSNSSPSSAACAPSCAGDLPLPSNTPTFSIKTSPAKARSPINRRGSVSSVSPKPPSSFKMSIRNWVTRTPSSSPPITPPASETKIMSPRKALIPVSQKSSQAEACSESRNRVKRRLDSSCLESVKQKCVKSCNCVTELDGQVENLHLDLCCLAGNQEDLSKDSLGPTKSSKIEGAGTSISEPPSPISPYASESCGTLPLPLRPCGEGSEMVGKENSSPENKNWLLAMAAKRKAENPSPRSPSSQTPNSRRQSGKKLPSPVT
modifications: left off: HA, N-terminal, state not stated | 3FLAG, C-terminal, kept
notes: Cdt2 with the C-terminal 30 amino acids deleted
As to B6, the “interaction with PCNA (anti-FLAG IP)” value in the data set with PCNA is on record as “loss of interaction with PCNA”.

A word on the Kd: it is the concentration at which binding is half-saturated.
